As usually defined, the pEC50 is the negative decadic logarithm of the EC50, by convention in mol/L. High values mean a small EC50, low ones a large EC50. The pKd is the negative decadic logarithm of the Kd, by convention in mol/L.

The values that follow come from US20220162322A1.

pEC50, pKd: −log10 of the molar value.

The target in test [1] is BDCA-2 (CLEC4C, CD303) on human plasmacytoid dendritic cells (purified pDC or pDC within PBMC) (human) (UniProt Q8WTT0). Nature of the test: cell-based or functional assay.
Chain of BDCA-2 (CLEC4C, CD303) on human plasmacytoid dendritic cells (purified pDC or pDC within PBMC) (human) (Q8WTT0 whole entry): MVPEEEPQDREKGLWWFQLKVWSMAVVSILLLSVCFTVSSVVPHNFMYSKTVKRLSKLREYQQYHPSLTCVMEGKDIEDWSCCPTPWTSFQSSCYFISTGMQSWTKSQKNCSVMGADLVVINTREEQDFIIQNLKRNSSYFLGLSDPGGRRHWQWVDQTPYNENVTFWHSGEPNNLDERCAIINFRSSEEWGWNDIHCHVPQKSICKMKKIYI
Test [2] deals with human BDCA-2-Fc (hIgG1-Fc-hBDCA-2) (human). Description: ELISA on plate-coated human BDCA2-Fc. A general note: ELISA stands for enzyme-linked immunosorbent assay.
Chain of human BDCA-2-Fc (hIgG1-Fc-hBDCA-2) (human) (chain, as listed by the source limits assumed): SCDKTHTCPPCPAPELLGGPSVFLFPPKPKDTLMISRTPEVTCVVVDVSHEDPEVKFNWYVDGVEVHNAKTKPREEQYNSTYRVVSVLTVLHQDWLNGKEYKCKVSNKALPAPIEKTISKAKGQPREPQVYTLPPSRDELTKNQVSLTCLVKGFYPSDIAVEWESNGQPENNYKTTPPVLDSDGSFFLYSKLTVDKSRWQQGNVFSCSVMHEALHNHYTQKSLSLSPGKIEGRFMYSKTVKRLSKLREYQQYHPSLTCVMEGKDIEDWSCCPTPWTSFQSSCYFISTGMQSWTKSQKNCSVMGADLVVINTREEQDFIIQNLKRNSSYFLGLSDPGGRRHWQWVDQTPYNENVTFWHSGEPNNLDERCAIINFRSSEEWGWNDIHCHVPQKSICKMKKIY
The target is the same in test [3]. Description: SPR (BIAcore T200), huBDCA2-Fc immobilised on CM5 chip, mAb injected. Background: In SPR one partner is held on a chip, and binding of the other changes the refractive index at the surface.

Regarding “anti-BDCA-2 mAb AC144 (Miltenyi Biotec, cat. no. 130-090-690) (antibody)”, in test [1], the IC50, nM; inhibition of IFNα from ODN stimulated healthy donor PBMC is 1.52 nM; the IC50, ng/ml; inhibition of IFNα from ODN stimulated healthy donor PBMC amounted to 228 ng/mL; the IC90, nM; inhibition of IFNα from ODN stimulated healthy donor PBMC was found to be 13.7 nM; the IC90, ng/ml; inhibition of IFNα from ODN stimulated healthy donor PBMC came to 2060 ng/mL. For the same substance, in test [2], the pEC50 is 9.57. Further, the pKd in test [3] is 8.64.
